Laboratory results from paper PMC13322254.

Experiments:
[1] = molecular target: SB2F1 (Pseudomonas putida | Bradyrhizobium japonicum) (UniProt Q88JB0); test: SEC; analytical SEC, in the dark only, Superdex 200 10/300 GL, 20 mM tris pH 8.0, 40 mM NaCl, 0.5 ml/min
[2] = molecular target: SB2F1 (Pseudomonas putida | Bradyrhizobium japonicum) (UniProt Q88JB0); test: SAXS + other: DLS; in solution with ATP and MgCl2, in the dark and after blue light illumination; SAXS at 10 °C in 20 mM Hepes pH 7.5, 150 mM NaCl, 2% glycerol, 2 mM TCEP, 1.5 mM ATP, 3 mM MgCl2, 0.64 to 4.18 mg/ml; DLS at 20 °C, ~1 mg/ml
[3] = molecular target: SB2F1, SeMet-labeled (Pseudomonas putida | Bradyrhizobium japonicum) (UniProt Q88JB0); test: crystal structure; dark-grown crystals, sitting-drop vapor diffusion, 19 °C, 10 to 12% PEG-8000, 0.2 M NaCl, 0.1 M sodium citrate pH 5.8 to 6.1, 1 mM ATP, 2 mM MgCl2; for SB2F1 also dark-grown crystals illuminated with blue light before data collection
[4] = molecular target: SB2F1-I66R, SeMet-labeled (Pseudomonas putida | Bradyrhizobium japonicum) (UniProt Q88JB0); test: as above
[5] = molecular target: SB2F1-I66R, SeMet-labeled (Pseudomonas putida | Bradyrhizobium japonicum) (UniProt Q88JB0); test: crystal structure; crystals grown under continuous blue light (450 nm), 19 °C, 16 to 20% PEG-3350, 0.2 M LiSO4, 0.1 M bicine pH 9.0 to 9.3, 1 mM ATP, 2 mM MgCl2

Which results are given for “SB2F1 (from UniProt Q88JB0 1-120) (enzyme)”?
stoichiometry N [1]: 2; stoichiometry N [2]: 2

“SB2F1, SeMet-labeled (from UniProt Q88JB0 1-120) (enzyme)” was tested. Which stoichiometry N [3] did it give?
The stoichiometry N was 2.

With “SB2F1-I66R, SeMet-labeled (from UniProt Q88JB0 1-120) (enzyme)” as the substance, how does the stoichiometry N [4] read?
Its stoichiometry N is 2.

What about the stoichiometry N [5] of the same substance?
Its stoichiometry N is 2.
